In paper PMC5639367, “Structure‐Guided Design of Peptides as Tools to Probe the Protein–Protein Interaction between Cullin‐2 and Elongin BC Substrate Adaptor in Cullin RING E3 Ubiquitin Ligases” (Chemmedchem, 2017):

Each substance was assayed against VBC ternary complex (pVHL, Elongin B, Elongin C) (UniProt P40337) (assay: BLI; biotinylated VBC (25 ug/mL) immobilised on Super Streptavidin biosensors, peptides titrated; Octet RED384; 25 °C; 20 mM HEPES pH 7.6, 100 mM NaCl, 1 mM DTT, 0.02 % Tween-20; reference tips subtracted; 1:1 model).

Sequence of peptide D (8-mer Cul2 peptide, Leu3 replaced by tyrosine) (Q13617 whole entry, looked up, tested part not stated): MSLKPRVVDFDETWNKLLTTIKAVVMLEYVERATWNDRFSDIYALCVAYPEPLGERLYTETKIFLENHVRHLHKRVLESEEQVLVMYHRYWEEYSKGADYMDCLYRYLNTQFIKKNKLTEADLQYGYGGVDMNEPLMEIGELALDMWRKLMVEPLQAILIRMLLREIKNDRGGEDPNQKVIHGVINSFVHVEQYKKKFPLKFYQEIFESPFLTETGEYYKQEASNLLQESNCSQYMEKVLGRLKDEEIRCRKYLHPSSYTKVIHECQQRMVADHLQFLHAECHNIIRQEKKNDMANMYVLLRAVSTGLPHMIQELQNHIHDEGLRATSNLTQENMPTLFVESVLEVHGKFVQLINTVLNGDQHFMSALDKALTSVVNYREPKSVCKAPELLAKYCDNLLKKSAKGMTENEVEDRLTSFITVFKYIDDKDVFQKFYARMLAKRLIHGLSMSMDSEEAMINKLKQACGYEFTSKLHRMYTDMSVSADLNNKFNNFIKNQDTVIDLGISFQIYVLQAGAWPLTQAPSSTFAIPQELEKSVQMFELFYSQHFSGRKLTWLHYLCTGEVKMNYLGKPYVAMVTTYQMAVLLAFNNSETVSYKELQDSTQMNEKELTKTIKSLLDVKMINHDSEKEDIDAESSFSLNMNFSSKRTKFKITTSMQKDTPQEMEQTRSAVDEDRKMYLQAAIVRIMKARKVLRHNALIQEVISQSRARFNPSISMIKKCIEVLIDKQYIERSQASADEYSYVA
Sequence of peptide C (8-mer Cul2 peptide, Leu3 replaced by phenylalanine) (Q13617 whole entry, looked up, tested part not stated): as above

Kd [mM]	Substance
3.1	peptide C (8-mer Cul2 peptide, Leu3 replaced by phenylalanine) (from UniProt Q13617 1-8)
2.2	peptide K (8-mer Cul2 peptide, Leu3 replaced by thioproline) (from UniProt Q13617 1-8)
2.1	peptide H (8-mer Cul2 peptide, Leu3 replaced by phenylglycine) (from UniProt Q13617 1-8)
7.4	peptide D (8-mer Cul2 peptide, Leu3 replaced by tyrosine) (from UniProt Q13617 1-8)
0.9	peptide G (8-mer Cul2 peptide, Leu3 replaced by tert-butylglycine) (from UniProt Q13617 1-8)
8.9	peptide I (8-mer Cul2 peptide, Leu3 replaced by cyclohexhylglycine) (from UniProt Q13617 1-8)
1.9	peptide F (8-mer Cul2 peptide, Leu3 replaced by norvaline) (from UniProt Q13617 1-8)
